Assay results reported in patent publication US10973882B2, “Methods for reducing severity of pulmonary fibrosis” (CEDARS-SINAI MEDICAL CENTER, priority 2017, dated 2021).

B1: rIL-6: Recombinant mouse IL-6 protein (Catalog 406-ML/CF, R&D Systems), used for mouse AEC2s and in mice (protein, UniProt P08505 25-211, looked up)
Interleukin-6: FPTSQVRRGDFTEDTTPNRPVYTTSQVGGLITHVLWEIVEMRKELCNGNSDCMNNDDALAENNLKLPEIQRNDGCYQTGYNQEICLLKISSGLLEYHSYLEYMKNNLKDNKKDKARVLQRDTETLIHIFNQEVKDLHKIVLPTPISNALLTDKLESQKEWLRTKTIQFILKSLEEFLKVTLRSTRQT

What was measured:
CD24^−Sca-1^−AEC2s = assay: 3D Matrigel organoid culture, colony-forming efficiency (CFE) of mouse AEC2s; format: cell-based
Protocol: Flow-sorted mouse CD24^−Sca-1^−AEC2s or human HTII-280^+AEC2s were cultured in Matrigel/medium (1:1) mixture in the presence of MLg2908 lung fibroblast cells (Barkauskas et al., 2013; Chen et al., 2012). 100 μl Matrigel/medium mix containing 3×10^3 type 2 cells and 2×10^5 MLg2908 cells were plated into each 0.4-μm Transwell insert of a 24-well plate. 400 μl of medium was added in the lower chambers. Medium was described previously (Chen et al., 2012). Matrigel was from BD Biosciences (catalog 354230). Fresh medium was changed every other day. Cultures were maintained in a humidified 37° C. and 5% CO2 incubator. Colonies were visualized with a Zeiss Axiovert40 inverted fluorescent microscope (Carl Zeiss AG, Oberkochen, Germany). The number of colonies with a diameter of ≥50 μm from each insert was counted, and the colony-forming efficiency (CFE) was determined by the number of colonies in each culture as a percentage of the number of input epithelial cells at day 12 after plating.
For culture with IL-6 protein or anti-IL-6, sorted type 2 cells were pretreated with IL-6 protein or anti-IL-6 at room temperature for 30 minutes. Type 2 cells were then mixed with fibroblasts in the Matrigel/medium mixture and plated into Transwell inserts. The same concentration of IL-6 protein or IL-6 antibody was added into the Matrigel/medium mix and into the medium placed in the lower chambers.
Healon GV was purchased from Abbott Medical Optics (Abbot Park, Ill.). Pep-1 was synthesized by Sigma-Genosys and dissolved in DMSO to form a 100 μg/μl stock solution as described previously (Jiang et al., 2005; Mummert et al., 2000). For 3D matrigel culture, sorted type 2 cells were pretreated with Healon (200 μg/ml) or pep-1 (125 μg/ml) at room temperature for 30 minutes. Higher concentrations of Healon (400 μg/ml, 600 μg/ml, and 800 μg/ml) were used for 3D matrigel culture of IPF AEC2s. Cells were then mixed with fibroblasts in Matrigel/medium mix and plated into Transwell inserts. The same concentrations of Healon or Pep-1 were added into the Matrigel/medium mix and medium that were placed in the lower chambers.
The cell-permeable STAT3 inhibitor S3I-201 was purchased from Santa Cruz Biotechnology (Dallas, Tex.) and dissolved in DMSO to form stock solution of 10 mg/ml (MW 365.36). The dose for treating type 2 cells in colony-formation assays was 50 μM and 100 μM. The same amounts of DMSO were added into the control wells. Flow-sorted type 2 cells were pretreated with the STAT3 inhibitor at 50 μM or 100 μM concentrations, and with IL-6 protein (100 ng/ml), at room temperature for 30 minutes. Cells were then mixed with fibroblasts in Matrigel/medium mix and plated into Transwell inserts. […]

human HTII-280^+AEC2s = assay: 3D matrigel culture, colony-forming efficiency (CFE) of human AEC2s; format: cell-based; conditions: AEC2s sorted from diseased (IPF) lung; rIL-6 200 ng/ml vs medium without exogenous IL-6; FIG. 13H
Protocol: (§1) Recombinant mouse IL-6 protein (Catalog 406-ML/CF, R&D Systems) was supplied in 50 mM sodium acetate and 1 mM EDTA and was diluted (1:5 or more depending on the stock concentration) in sterile PBS, and 2 μg per mouse in 50 μl was injected intramuscularly at 1 day before and at 1 day and 3 days after bleomycin instillation. Control buffer was made of the same volume of 50 mM sodium acetate and 1 mM EDTA solution and PBS. Mouse anti-IL-6 (MAB406, Clone #MP5-20F3, R&D Systems) or control IgG was reconstituted with sterile PBS. 250 μg per mouse in 250 μl sterile PBS was injected intraperitoneally to mice at 1 day before and at 1 day and 3 days after bleomycin instillation. Recombinant human IL-6 protein (Catalog 206-IL-010, R&D Systems) was reconstituted with sterile PBS containing 0.1% BSA. 200 ng/ml was used for organoid culture of human AEC2s.
Single-cell suspensions from human lungs were isolated as described (Barkauskas et al., 2013). The procedures of staining the cells for flow cytometry and data analysis were described previously (Barkauskas et al., 2013; Liang et al., 2012). […] Flow cytometry was performed using a FACSCanto II flow cytometer and FACSAria III sorter (BD Immunocytometry Systems, San Jose, Calif.) and analyzed using Flow Jo 9.6.4 software (Tree Star, Ashland, Oreg.). […]

[1] = tested on: bleomycin-induced lung injury; assay: Bleomycin lung injury model with rIL-6 or anti-IL-6 administration; format: in vivo, mouse
Text: Mice. Tlr4^−/− and Tlr2^−/− mice were obtained (Takeuchi et al., 1999; Kawai et al., 1999), Has2^flox/+ mice were generated using the Cre-loxP system (Li et al., 2011; Matsumoto et al., 2009), and SFTPC-Cre mice, SFTPC-CreER mice, SFTPC-GFP mice, and Rosa-Tomato^flox/flox mice were generated (Barkauskas et al., 2013; Chen et al., 2012; Eblaghie et al., 2006). All mice were backcrossed on the C57Bl/6J background for more than six generations. […] Has2^flox/flox homozygous mice were crossed with SFTPC-Cre^+ mice to generate SFTPC-Cre^+;Has2^flox/flox mice. Rosa-Tomato^flox/flox mice were crossed with SFTPC-CreER mice to generate SFTPC-CreER^+;Rosa-Tomato^flox/flox mice. Animals were randomly assigned to treatment groups, and they were age- and sex-matched. 8- to 12-week-old mice of both sexes (male:female ratio ˜1:1) were used in the bleomycin lung injury model. Animals for experiments were selected by genotype, and no blinding was performed.
Bleomycin instillation and BAL procedures were described previously (Dong et al., 2015; Lovgren et al., 2011). Under anesthesia, the trachea was surgically exposed. 1.25-5 U/kg bleomycin (Hospira, Lake Forest, Ill.) in 25 μl PBS was instilled into the mouse trachea with a 25-G needle inserted between the cartilaginous rings of the trachea. Control animals received saline alone. The tracheostomy site was sutured, and the animals were allowed to recover. Mice were euthanized at different time points, and lung tissue and BAL fluid were collected for experiments. 0.8-ml aliquots of PBS were used for lavage. Cell-free BAL fluid was stored in a −80° C. freezer for cytokine measurement.
Collagen contents in mouse lungs were measured using a conventional hydroxyproline method (Jiang et al., 2004). Lung tissues were vacuum-dried and hydrolyzed with 6 N hydrochloride acid at 120° C. overnight. Hydroxyproline content was expressed as ‘μg per lung’, unless specified otherwise. The ability of the assay to completely hydrolyze and recover hydroxyproline from collagen was confirmed using samples containing known amounts of purified collagen.
as §1
Single-cell suspensions from mouse lungs were isolated as described (Chen et al., 2012). Mouse lungs were perfused with 5 ml PBS and digested with elastase (4 U/ml; Worthington Biochemical Corporation) and DNase I (100 U/ml; Sigma) to obtain single-cell suspensions for flow cytometry. Primary antibodies to CD31, CD34, CD45, Sca-1, and CD24, and secondary antibody anti-streptavidin were all from eBioscience (San Diego, Calif.). Mouse anti-EpCAM (G8.8, catalog 118215) and anti-Ki67 (catalog 652403) were from BioLegend (San Diego, Calif.). 7-AAD was from BD Biosciences (San Diego, Calif.).
The procedures of staining the cells for flow cytometry and data analysis were described previously (Chen et al., 2012; Liang et al., 2012). In brief, cells were resuspended in Hank's balanced saline solution supplemented with 2% FBS (FBS), 10 mM HEPES, 0.1 mM EDTA, 100 IU/ml penicillin, 100 μg/ml streptomycin (HBSS+ buffer). […]

[2] = bleomycin-treated Tlr4^−/− mice, rIL-6 vs control buffer, FIG. 10G

Molecule | rIL6-promoted colony formation of CD24^−Sca-1^−AEC2s (CD24^−Sca-1^−AEC2s; STAT3 inhibitor 50 μM or 100 μM with IL-6 protein 100 ng/ml, FIG. 11C) | CFEs of HTII-280^+AEC2s (human HTII-280^+AEC2s) | CFEs of CD24^−Sca-1^−AEC2s (CD24^−Sca-1^−AEC2s; AEC2s from bleomycin-treated SFTPC-Cre;Has2^flox/flox mice, rIL-6 100 ng/ml, FIG. 10F) | CFEs of CD24^−Sca-1^−AEC2s (CD24^−Sca-1^−AEC2s; AEC2s from bleomycin-treated Tlr4^−/− mice, rIL-6 100 ng/ml, FIG. 10E) | CFEs of CD24^−Sca-1^−AEC2s (CD24^−Sca-1^−AEC2s; AEC2s from bleomycin-treated WT mice, dose-dependent, vs control IgG or medium, FIGS. 10C-D) | hydroxyproline content in the lungs ([1]; Tlr4^−/− mice, bleomycin and rIL-6 vs bleomycin alone, FIG. 10H) | AEC2 apoptosis ([1]; bleomycin day 7 Tlr4^−/− mice, rIL-6 vs buffer, FIG. 11D) | inflammatory cell infiltration (BAL cell counts) ([1]; bleomycin day 7 Tlr4^−/− mice, rIL-6 vs buffer, FIG. 11E) | hydroxyproline content in the lungs ([1]; bleomycin-injured SFTPC-Cre;Has2^flox/flox mice, rIL-6 vs buffer, FIG. 10I) | survival ([1]; bleomycin-injured Tlr4^−/− mice, rIL-6 vs buffer, 21 days, FIG. 11F) | survival / mortality ([1]; bleomycin-injured WT mice, anti-IL-6 250 μg per mouse i.p. vs control IgG (FIG. 11G), rIL-6 vs bleomycin alone (data not shown)) | hydroxyproline levels ([1]; bleomycin-injured WT mice, anti-IL-6 vs control IgG, rIL-6 vs bleomycin alone, data not shown) | recovery of CD24^−Sca-1^−AEC2s ([1]; bleomycin-treated Tlr4^−/− mice, rIL-6 2 μg per mouse i.m. day −1, 1, 3, vs control buffer, FIG. 10G) | Ki67 staining of CD24^−Sca-1^−AEC2s [1, 2] | concentration of total BALF proteins [1, 2]
Cc1ccc(S(=O)(=O)OCC(=O)Nc2ccc(C(=O)O)c(O)c2)cc1 [S3I-201, reference compound] | abolished |  |  |  |  |  |  |  |  |  |  |  |  |  | 
B1 |  | markedly increased | promoted | promoted | increased | lower | did not affect | did not affect | lower hydroxyproline content | increased survival | did not alter | did not alter | more recovery | greater Ki67 staining | lower concentration
